Data reported in patent US20240325481A1 (MOREHOUSE SCHOOL OF MEDICINE, published 2024).

Molecular target: gp120 of HIV-1NL4-3 virus (on virus particles) (HIV-1 (NL4-3))
Assay: cell-based or functional assay

B1: MoMo30 protein (hevamine A-related protein) from Momordica balsamina, purified from leaf extract (other)
chain: GGIATYWGQDTREGRLTAACATGKFQIINIGFLSTFGNGRPPQVNLTRHCSPISNGCRNVSVGVLNCRNDGVKVMLSIGGPHGSYSLSSAAEAIDLADYIWNNFLGGRSTSLRPFGDVPLDGVDFRIERGQFSHYYTMVARRLHDYGRQCSRKVYLTAAPGCRFPDKYLTELLHTGLFDYVWVRFFDDRQCQYNSVNPSGFWWSWMRWINSIPARKFYVGIPASEEAGDGYVAPEVLIKEVLPFTKKFTNYGGVMLFDLSNDVQTNYSSIISNRV
IC50, inhibition of HIV-1NL4-3 infectivity in MAGI cell assay: 2.8 nM
